Test results reported in patent US20050250692A1.

Key:
[1] = molecular target: acidic pH binding sites of Mv1Lu cells; assay: inhibition of 125I-α2M* binding to Mv1Lu cells at pH 5 or 6
[2] = molecular target: TβR-V/LRP-1 in mink lung epithelial cells (Mv1Lu cells) (mink); assay: inhibition of 10 nM 125I-IGFBP-3 affinity labeling (binding and DSS cross-linking) of TβR-V on Mv1Lu cells
[3] = molecular target: insulin receptor of Mv1Lu cells (mink); assay: cell-based or functional assay
[4] = molecular target: acidic pH binding sites of MEF cells; assay: competition with 125I-α2M* binding to MEF cells at pH 5.5
[5] = molecular target: IGF-I receptor of Mv1Lu cells (mink); assay: cell-based or functional assay
[6] = molecular target: acidic pH binding sites of Mv1Lu cells; assay: inhibition of 125I-α2M* binding to Mv1Lu cells at pH 6
[7] = molecular target: LRP-1 in mouse embryonic fibroblasts (MEF cells) (mouse) (UniProt Q91ZX7); assay: co-immunoprecipitation with anti-annexin VI IgG from lysates of MEF cells carrying cell surface-bound 125I-α2M* (1 nM, pH 7.4)
LRP-1 in mouse embryonic fibroblasts (MEF cells) (mouse), sequence (Q91ZX7 20-4545): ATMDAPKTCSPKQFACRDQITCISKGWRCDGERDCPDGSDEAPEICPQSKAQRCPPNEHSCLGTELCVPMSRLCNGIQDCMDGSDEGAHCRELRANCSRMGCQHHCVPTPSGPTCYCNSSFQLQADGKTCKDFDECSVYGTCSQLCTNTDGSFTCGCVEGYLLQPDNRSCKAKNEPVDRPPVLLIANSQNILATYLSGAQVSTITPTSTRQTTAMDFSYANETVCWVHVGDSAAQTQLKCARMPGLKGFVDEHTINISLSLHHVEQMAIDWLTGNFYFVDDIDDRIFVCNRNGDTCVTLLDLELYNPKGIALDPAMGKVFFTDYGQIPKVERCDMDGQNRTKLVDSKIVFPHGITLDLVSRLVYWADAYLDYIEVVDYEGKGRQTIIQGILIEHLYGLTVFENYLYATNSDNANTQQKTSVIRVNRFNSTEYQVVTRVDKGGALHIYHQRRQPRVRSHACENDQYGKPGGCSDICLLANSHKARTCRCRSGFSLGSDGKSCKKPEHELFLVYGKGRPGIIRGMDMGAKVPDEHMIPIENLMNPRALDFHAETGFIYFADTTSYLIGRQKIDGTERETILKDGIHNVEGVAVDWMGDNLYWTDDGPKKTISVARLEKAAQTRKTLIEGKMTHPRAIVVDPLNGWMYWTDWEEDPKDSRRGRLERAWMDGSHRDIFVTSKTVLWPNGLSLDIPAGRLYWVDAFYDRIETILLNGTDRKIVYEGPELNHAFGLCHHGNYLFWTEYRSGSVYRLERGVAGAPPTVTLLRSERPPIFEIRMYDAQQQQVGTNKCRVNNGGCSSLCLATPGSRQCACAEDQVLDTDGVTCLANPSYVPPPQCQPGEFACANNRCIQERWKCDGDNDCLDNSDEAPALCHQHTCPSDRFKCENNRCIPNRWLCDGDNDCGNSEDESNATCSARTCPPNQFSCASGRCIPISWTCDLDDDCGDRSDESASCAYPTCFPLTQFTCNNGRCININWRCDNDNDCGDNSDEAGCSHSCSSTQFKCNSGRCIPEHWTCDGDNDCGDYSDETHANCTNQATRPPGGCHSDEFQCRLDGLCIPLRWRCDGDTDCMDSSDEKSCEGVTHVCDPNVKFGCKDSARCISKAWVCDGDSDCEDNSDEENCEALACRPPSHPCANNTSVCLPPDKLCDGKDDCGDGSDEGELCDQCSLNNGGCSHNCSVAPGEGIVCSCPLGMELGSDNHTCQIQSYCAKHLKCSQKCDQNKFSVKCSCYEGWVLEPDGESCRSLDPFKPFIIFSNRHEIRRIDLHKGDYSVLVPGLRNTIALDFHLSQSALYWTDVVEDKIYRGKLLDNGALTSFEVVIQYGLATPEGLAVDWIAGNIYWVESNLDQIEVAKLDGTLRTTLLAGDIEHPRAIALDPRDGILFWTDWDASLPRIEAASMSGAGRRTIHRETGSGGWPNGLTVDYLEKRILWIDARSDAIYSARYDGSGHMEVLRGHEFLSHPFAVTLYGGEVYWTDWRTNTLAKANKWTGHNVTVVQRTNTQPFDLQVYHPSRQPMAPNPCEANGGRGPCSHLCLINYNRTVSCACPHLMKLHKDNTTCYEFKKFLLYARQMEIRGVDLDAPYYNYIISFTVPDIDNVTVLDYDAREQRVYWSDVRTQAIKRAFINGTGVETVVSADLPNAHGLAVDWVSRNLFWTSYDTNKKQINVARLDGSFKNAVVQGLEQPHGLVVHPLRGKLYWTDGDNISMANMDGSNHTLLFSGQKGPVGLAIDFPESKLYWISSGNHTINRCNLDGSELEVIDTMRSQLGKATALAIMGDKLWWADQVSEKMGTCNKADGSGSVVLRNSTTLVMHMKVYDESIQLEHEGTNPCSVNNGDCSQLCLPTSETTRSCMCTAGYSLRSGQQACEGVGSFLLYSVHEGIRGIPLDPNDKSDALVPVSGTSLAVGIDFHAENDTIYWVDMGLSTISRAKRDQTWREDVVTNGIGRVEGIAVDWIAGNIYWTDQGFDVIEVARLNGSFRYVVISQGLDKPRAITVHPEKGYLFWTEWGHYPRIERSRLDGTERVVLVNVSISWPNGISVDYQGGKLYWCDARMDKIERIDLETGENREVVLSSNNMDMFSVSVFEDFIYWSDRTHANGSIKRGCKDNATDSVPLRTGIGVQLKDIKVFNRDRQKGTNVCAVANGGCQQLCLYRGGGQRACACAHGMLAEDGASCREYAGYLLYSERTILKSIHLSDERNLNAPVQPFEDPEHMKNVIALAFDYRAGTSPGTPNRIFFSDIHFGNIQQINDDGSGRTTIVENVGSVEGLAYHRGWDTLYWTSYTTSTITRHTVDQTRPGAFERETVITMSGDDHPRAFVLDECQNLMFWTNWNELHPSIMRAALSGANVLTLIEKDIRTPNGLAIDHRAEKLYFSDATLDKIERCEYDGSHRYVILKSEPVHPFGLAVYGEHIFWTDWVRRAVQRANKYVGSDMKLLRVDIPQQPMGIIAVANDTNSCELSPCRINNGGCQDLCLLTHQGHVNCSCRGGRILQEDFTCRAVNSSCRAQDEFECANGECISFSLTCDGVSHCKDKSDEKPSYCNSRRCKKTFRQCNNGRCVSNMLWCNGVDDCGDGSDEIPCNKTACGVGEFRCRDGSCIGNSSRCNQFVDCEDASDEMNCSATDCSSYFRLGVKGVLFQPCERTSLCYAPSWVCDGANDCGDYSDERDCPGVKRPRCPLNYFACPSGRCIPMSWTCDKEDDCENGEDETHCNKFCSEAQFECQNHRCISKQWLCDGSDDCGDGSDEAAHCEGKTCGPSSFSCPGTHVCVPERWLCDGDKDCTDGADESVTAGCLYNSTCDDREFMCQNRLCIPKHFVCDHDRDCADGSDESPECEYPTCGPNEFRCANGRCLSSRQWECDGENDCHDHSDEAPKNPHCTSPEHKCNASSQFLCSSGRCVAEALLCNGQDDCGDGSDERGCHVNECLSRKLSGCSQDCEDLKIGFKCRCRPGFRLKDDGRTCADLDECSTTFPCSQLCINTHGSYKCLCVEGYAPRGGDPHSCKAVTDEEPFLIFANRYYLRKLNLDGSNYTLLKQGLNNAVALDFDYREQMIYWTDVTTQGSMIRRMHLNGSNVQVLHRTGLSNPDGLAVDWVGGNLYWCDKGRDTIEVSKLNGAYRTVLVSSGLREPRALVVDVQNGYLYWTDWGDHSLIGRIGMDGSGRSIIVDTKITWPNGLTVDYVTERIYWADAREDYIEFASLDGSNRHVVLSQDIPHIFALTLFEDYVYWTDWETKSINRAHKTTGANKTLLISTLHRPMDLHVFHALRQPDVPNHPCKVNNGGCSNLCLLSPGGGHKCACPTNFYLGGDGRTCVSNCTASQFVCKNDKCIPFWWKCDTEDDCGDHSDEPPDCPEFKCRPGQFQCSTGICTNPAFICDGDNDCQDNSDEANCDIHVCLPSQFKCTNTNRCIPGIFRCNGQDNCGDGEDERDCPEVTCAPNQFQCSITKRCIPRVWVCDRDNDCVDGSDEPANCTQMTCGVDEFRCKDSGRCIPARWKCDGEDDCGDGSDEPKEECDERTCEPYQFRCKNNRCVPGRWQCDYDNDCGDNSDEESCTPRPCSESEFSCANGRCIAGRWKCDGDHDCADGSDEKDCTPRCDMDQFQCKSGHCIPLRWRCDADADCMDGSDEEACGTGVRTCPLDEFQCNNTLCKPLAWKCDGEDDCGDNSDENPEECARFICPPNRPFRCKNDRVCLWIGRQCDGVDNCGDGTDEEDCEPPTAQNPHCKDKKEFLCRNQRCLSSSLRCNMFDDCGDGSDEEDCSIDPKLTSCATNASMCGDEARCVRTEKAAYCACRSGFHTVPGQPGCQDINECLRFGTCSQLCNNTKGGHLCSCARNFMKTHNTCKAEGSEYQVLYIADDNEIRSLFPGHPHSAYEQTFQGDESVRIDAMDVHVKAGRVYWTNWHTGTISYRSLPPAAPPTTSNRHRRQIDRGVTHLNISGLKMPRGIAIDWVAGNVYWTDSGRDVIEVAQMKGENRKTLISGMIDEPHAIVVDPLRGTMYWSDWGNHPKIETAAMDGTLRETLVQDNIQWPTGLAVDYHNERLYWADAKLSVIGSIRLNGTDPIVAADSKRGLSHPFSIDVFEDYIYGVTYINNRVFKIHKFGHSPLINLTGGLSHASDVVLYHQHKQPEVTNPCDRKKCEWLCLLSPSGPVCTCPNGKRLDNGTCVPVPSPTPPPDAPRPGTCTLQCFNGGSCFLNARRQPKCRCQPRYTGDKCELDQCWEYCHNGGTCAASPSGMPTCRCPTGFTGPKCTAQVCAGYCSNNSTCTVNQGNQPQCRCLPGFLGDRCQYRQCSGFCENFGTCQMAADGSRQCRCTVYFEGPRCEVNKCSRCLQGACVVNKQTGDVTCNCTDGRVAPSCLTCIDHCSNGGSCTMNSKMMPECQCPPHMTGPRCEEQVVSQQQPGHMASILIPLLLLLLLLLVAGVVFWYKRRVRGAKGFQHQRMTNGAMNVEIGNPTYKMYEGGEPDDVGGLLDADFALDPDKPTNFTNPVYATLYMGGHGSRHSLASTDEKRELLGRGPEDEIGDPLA

bovine lactoferrin (from UniProt P24627 20-708) (ligand)
IC50 [1]: 50 nM

human transferrin (from UniProt P02787 20-698) (ligand)
IC50 [1]: 500 nM

human receptor-associated protein (RAP) (from UniProt P30533 35-357) (ligand)
IC50 [2]: 5 µg/mL

insulin (ligand)
ED50 for blocking IGFBP-3-induced inhibition of DNA synthesis in Mv1Lu cells [3]: 1 nM

native α2M (human) (from UniProt P01023 24-1474) (ligand)
IC50 [4]: 150 nM

(Q^3A^4Y^15L^16) IGF-I (from UniProt P05019 49-118) (ligand)
ED50 for blocking IGFBP-3-induced growth inhibition in Mv1Lu cells [5]: 0.3 nM

human low density lipoprotein (LDL) (from UniProt P04114 28-4563)
IC50 [6]: 5 µg/mL

cell surface annexin VI of mouse embryonic fibroblasts (MEF and PEA-13 cells) (from UniProt P14824 2-673) (receptor)
percent of LRP-1-bound 125I-α2M* co-immunoprecipitated by anti-annexin VI IgG [7]: 40%
